What was measured:
[1] = target: fused FliS−FliC^C construct (FliC^C fused to the C terminus of FliS) (UniProt P06179); test: ITC; settings: read off a plot
[2] = target: cytoplasmic domain of Salmonella enterica serovar Typhimurium FlhA (FlhA^C) (Salmonella enterica serovar Typhimurium ST313) (UniProt P40729); test: ITC; FlhA^C and variants (0.1–0.2 mM) in the cell, FliT-FliD, FliS-FliC and variants (1.0–2.0 mM) in the syringe; 25 °C; 50 mM NaPi pH 6.8, 300 mM NaCl, 0.05% NaN3; one-site binding model
[3] = target: cytoplasmic domain of Salmonella enterica serovar Typhimurium FlhA (FlhA^C) (UniProt P40729); test: ITC; settings: read off a plot

cytoplasmic domain of Salmonella enterica serovar Typhimurium FlhA (FlhA^C) (from UniProt P40729) L476A
ratio to parent [1]: 8 fold

fused FliS−FliC^C construct (FliC^C fused to the C terminus of FliS) (from UniProt P06179 454-495)
Kd [2]: 10 µM

fused FliT−FliD^C construct (FliD^C fused to the N terminus of FliT) (from UniProt P16328)
Kd [2]: 20 µM

fused FliT−FliD^C construct (FliD^C fused to the N terminus of FliT) (from UniProt P16328) I93D
ratio to parent [3]: 3.3 fold

fused FliT−FliD^C construct (FliD^C fused to the N terminus of FliT) (from UniProt P16328) R98D
ratio to parent [3]: 4.5 fold

Source: publication PMC5932034
